experiment: soluble on expression in E. coli; label from the status in PepcDB or PDB records

For “VARAVGKENKSEFGVPSVVEMRPPALCEGCGHRDMYITLTEVLKEEYPSHKVFSDIGCYTLGANAPFNAINSCVDMGASITMAKGAADGGLHPSVAVIGDSTFTHSGMTGLLDCVNENANVVIVISDNETTAMTGGQDSAGTGRIESICIGLGVDPAHIRVVVPLKKNHEEMRQIIREEIEYNGVSVIIPRRECIQTLARKKRSK”, which “soluble on expression in E. coli” value is on record?
The value was “not soluble”.

Which “soluble on expression in E. coli” value does the source give for “VDQVFVVGHKNLDMDALGSAVGMQLFASNVIENSYALYDEEQMSPDIERAVSFIEKEGVTKLLSVKDAMGMVTNRSLLILVDHSKTALTLSKEFYDLFTQTIVIDHHRRDQDFPDNAVITYIESGASSASELVTELIQFQNSKKNRLSRMQASVLMAGMMLDTKNFTSRVTSRTFDVASYLRTRGSDSIAIQEIAATDF” here?
The value was “not soluble”.

With “VFLGKTSPDFNLGWSNSLSYKGFGLSFLINGRFGGVVTSSTQAILDRFGVSKASAEARDAGGVLLPGQGRVDAQSYYQLIGTGDYTTSGYYVYSATNIRLQELTLSYRFPDLWFKNVLKDVTLSFIANNPWMLYSKAPHDPELTPSVGTYGQGNDYFMQPSVRSFGFGIKFKL” as the sequence, how does the “soluble on expression in E. coli” value read?
The value was “not soluble”.

Which “soluble on expression in E. coli” value does the source give for “VFLPTNAQYQLLVVGVSPWDTPSPSGRISWGSAWPHQARRAQTCQRVRRHWMIDTTEAAYRLTYQPDGTSITVRENLVDILARELLGPIRGPQEVLPFSPRSQYLVGHLAPVKLTGAALIDDNAVQARANAEALAEGGGVPAYAADETTPTPTTTPKTAHPSRA” here?
The value was “not soluble”.

For “VIGDMNPDFLGSVSTGLTWKNLSFRMALDMRFGGKVAVYGNRYGTAYGWTESSLKFRDEAHGGMTWTSQYLNADGSQSGSYGVTYHDGMIPQGIFASGTQVTGIDGKTHDVSGMSYQQAYENGILEPMHAASYYNYANQWSTGVTNDGWIHDLKYIALREITVGYTFPSNIAGKIGAKRLGVSFSARNLGYLYNSLPNDVNPEGVRGNLSGEFRIRSFDPYTANYTMTINVGF”, which “soluble on expression in E. coli” value is on record?
Its value is “not soluble”.

For “VILKEEFRGVIIKQGCLLKQGHRRKNWKVRKFILREDPAYLHYYDPAGAEDPLGAIHLRGCVVTSVESNSNGRKSEEENLFEIITADEVHYFLQAATPKERTEWIKAIQMASRTGK”, which “soluble on expression in E. coli” value is on record?
Its value is “soluble”.

For “VKSNKGFEAIAWDPLRQRLIIGEERPPKLYTWNTDGRSPLKGEKQPLPSDELDLRNLSALGVDPRTGHLLVLSADSNMLLELDEQGQQVSFMTLLGGFNGLE”, which “soluble on expression in E. coli” value is on record?
The value was “not soluble”.

With “VLDDEEKIVDLSSSIEKFLDFAPGSLAGVALSEILHPEDYLHFKTALDRQKPHEAVLMFYSRFKTGDGSWLNVEWSLSIKRKPMTDQYEYTIILRKTDNPLF” as the sequence, how does the “soluble on expression in E. coli” value read?
The value was “not soluble”.

With “VLQTRNYTCGPAALVTVLQRLGVNTTEDELAGLAGTTEDGTTMQGLLEASRAKGVNATGMKLNISELKENMIAYTINDGTGHYTVINGITNDTVKLADPSLGNIEMNIEEFTEIYSGYALVINDPNNPR” as the sequence, how does the “soluble on expression in E. coli” value read?
The value was “not soluble”.

Which “soluble on expression in E. coli” value does the source give for “VLSARCHIRHIGSPGKDARCAHLSATLRPGIGISPTNVGNATVLADGTPAKPIQGAETMQRARHTGSCFSANARGPAISSGNPSRAGCGVPSSTTTPSSTPQAIRLLACTDSDALTVTRTAR” here?
The value was “not soluble”.

Which “soluble on expression in E. coli” value does the source give for “VNKSELIEAIAQEADISKAAAQKALDATTNAVTTALKQGDTVTLVGFGTFYVGERAERQGRNPKTGEPLTIAAAKTPKFRAGKALKDAL” here?
Its value is “soluble”.

With “VPFDPGKIERAIAAAGQATGEFDPQQAQALAERVVERLPERACLDIERVQDLVERVLMEAGHYPTARAYVVYRERHGRLRRERKTLVDVAASMNEYLSREDWRVRANANQGYSLGGLILNVSGKVTANYWLDEVYDADIAAAHRDADLHIHDLDMLAGYCAGWSLRTLLNEGLNGVPGRVEAGPPKHLGSALGQMVNFLGTLQNEWAGAQAFSSFDTYLAPYVRKDRLDYASVRQALQEFIYNLNVPSRWGTQTPFTNLTFDWVCPDDLRDQVPRIGGEEMPFAYGELQAEMDLINRAYIEVMQAGDAHGRVFTFPIPTYNITHDFPWDSDNATRLFEMTARYGLPYFQNFLNSDMQPNQVRSMCCRLQLDVRELLKRGNGLFGSAEQTGSLGVVTINCARLGYRHRGDAAGLYRQLDHLLELAFASLELKRKVIQQHMDAGLYPYTRRYLGTLRNHFSTIGVNGLHEMVRNFSDDREGLHSEAGREMALALLDHVRARLVGFQEDSGHLYNLEATPAEGTTYRFAREDRKRYPRILQAGTPEAPYYTNSSQLPVGFTDDPFEALELQDALQCKYTGGTVLHLYMAERISSAEACKTLVRTALGRFRLPYLTVTPTFSICPRHGYLAGEHEFCPKCDEELLQRSTPKSCCGGC” as the sequence, how does the “soluble on expression in E. coli” value read?
The value was “not soluble”.

Which “soluble on expression in E. coli” value does the source give for “VRSYLLRIELADRPGSLGSLAVALGSVGADILSLDVVERGNGYAIDDLVVELPPGAMPDTLITAAEALNGVRVDSVRPHTGLLEAHRELELLDHVAAAEGATARLQVLVNEAPRVLRVSWCTVLRSSGGELHRLAGSPGAPETRANSAPWLPIERAAALDGGADWVPQAWRDMDTTMVAAPLGDTHTAVVLGRPGPEFRPSEVARLGYLAGIVATMLR” here?
Its value is “soluble”.

For “VTQLPQPTWRWWQQRETEQVQSSHIDGEIVGALIPDLAVLHSEDASRAAVGREKHRCSLDPLGGGFRSRRASMPAGALLLSAVIAIQLDRMNARVFGDGWIGAQACMWVNKFHEESTVTALSPSSPIAQGSIARHPETMQSAYVRIAEGGSRDVAPAAQLQRRRP”, which “soluble on expression in E. coli” value is on record?
The value was “not soluble”.

With “VTSDPGTAAPVKRTAEQSRSLIVDAAGRAFATRPYREITLKDIAEDAGVSAPLIIKYFGSKEQLFDALVDFRAAAEIVFSGPLDGLGERMVSMFARPLEPYKPLSLNILFMSGPSEESSRKLRANYSAQMIDALAERLPGRDARLRAELVMSMLTGLAVMRRKMMQEHATGTPEEVVAHYAPLVQELLDG” as the sequence, how does the “soluble on expression in E. coli” value read?
The value was “soluble”.

With “VTSSLPTVQRVIQNALEVSQLKYSQHPRPGGAPPALIVELPGERKLKINTILSVGEHSVRVEAFVCRKPDENREDVYRFLLRRNRRLYGVAYTLDNVGDIYLVGQMALSAVDADEVDRVLGQVLEVVDSDFNALLELGFRSSIQREWQWRLSRGESLQNLQAFAHLRPTTMQSAQRDEKELGG” as the sequence, how does the “soluble on expression in E. coli” value read?
The value was “soluble”.

Which “soluble on expression in E. coli” value does the source give for “VVIPSPCCMFFVSKRIPENRVVSYQLSSRSTCLKAGVIFTTKKGQQSCGDPKQEWVQRYMKNLDAKQKKASPR” here?
Its value is “soluble”.

For “VVKRSRATRLSPSIWSGWESPQCRSIRARLLLPRGRSRPPNADCCWNQLAVTPDTRMPASSAAGRDAAAYDAWYDSPTGRPILATEVAALRPLIEVFAQPRLEIGVGTGRFADLLGVRFGLDPSRDALMFARRRGVLVANAVGEAVPFVSRHFGAVLMAFTLCFVTDPAAIFRETRRLLADGGGLVIGFLPRGTPWADLYALRAARGQPGYRDARFYTAAELEQLLADSGFRVIARRCTLHQPPGLARYDIEAAHDGIQAGAGFVAISAVDQAHEPKDDHPLESE”, which “soluble on expression in E. coli” value is on record?
The value was “not soluble”.

With “WLDHVQNLVPGLDRQGLLEACEFARESEQRAIAAQNSWAEGTSSFQTGLEIAEILADLKLDQESLVAAVIYRGVREGKITLEAVNKHFGPVVAKLIEGVLRMAAISASLNPRHSMVLGTQAQVENLRKMLVAMVDDVRVALIKLAERTCAIRAVKNADEEKRHRVAREVFDIYAPLAHRLGIGHIKWELEDLSFRYLEPDQYKQIAKLLHERRLDREQYIANVMSQLKEALAATGVQADLSGRAKHIYSIWRKMQRKGLDFSQIYDVRAVRVLVPEMRDCYTALGIVHTLWRHIPKEFDDYIANPKENGYRSLHTAVIGPEGKVLEVQIRTHSMHEEAELGVCAHWRYKGTDVKASSNHYEEKISWLRQVLEWHEELGDIGGLAEQLRVDIEPDRVYVFTPDGHAIDLPKGATPLDFAYRVHTEVGHNCRGAKINGRIVPLNYSLQTGEQVEIITGKHSGPSRDWLNSNLGYVTTSRARAKIVHWFKLQARDQNVAAGKALIERELSRLALPPVDFDRLAEKANVRTAEDMFAALGAGDLRLAHLVNYAQQLVEPDRDSEQLELIPRKPSKIGHGKRGDVQIQGVGNLLTQMAGCCQPLPGDPIVGYITLGRGVTIHRQDCATALQLAGREPERMIQVSWGPEPVRTYPVDIAIRAYDRSGLLRDVSQVLLNERINVLAVNTRSNKEDNTATMQLTIEIPGLDALGRLLARVSQLPNIIEARRNR” as the sequence, how does the “soluble on expression in E. coli” value read?
Its value is “not soluble”.

Which “soluble on expression in E. coli” value does the source give for “WLSPEIEALSHGTRLNNIDMYPALQRLLPWPEATNFEEFAPSHLSVPSGNQHRLDYSSGRPVIRVKLQECFGLEESPQLCGIPVQFHLLSPAGRPLAVTDDLRSFWSGPYSQVRAEMRGRYPKHPWPEDPWTAPATARTKNRM” here?
Its value is “not soluble”.

Reference: the DeepSol protein solubility set
